Laboratory results published in patent US20160115235A1 (ARES TRADING S A, published 2016).

T1: cynomolgus monkey (Macaca fascicularis) CXCR5 (cynomolgus monkey (Macaca fascicularis), UniProt P32302 1-372 (human entry))
T1 chain: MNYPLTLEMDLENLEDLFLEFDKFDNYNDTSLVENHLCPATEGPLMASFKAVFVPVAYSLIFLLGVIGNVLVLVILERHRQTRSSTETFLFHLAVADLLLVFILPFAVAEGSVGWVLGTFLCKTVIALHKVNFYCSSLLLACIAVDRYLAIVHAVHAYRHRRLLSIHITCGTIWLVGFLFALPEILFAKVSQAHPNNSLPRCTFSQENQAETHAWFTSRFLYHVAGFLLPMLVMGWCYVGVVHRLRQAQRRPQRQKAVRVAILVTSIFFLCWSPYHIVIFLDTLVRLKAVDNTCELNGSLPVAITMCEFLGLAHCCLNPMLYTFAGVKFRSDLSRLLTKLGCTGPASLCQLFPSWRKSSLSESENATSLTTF

T2: human CXCR5 (human, UniProt P32302 1-372)
T2 sequence: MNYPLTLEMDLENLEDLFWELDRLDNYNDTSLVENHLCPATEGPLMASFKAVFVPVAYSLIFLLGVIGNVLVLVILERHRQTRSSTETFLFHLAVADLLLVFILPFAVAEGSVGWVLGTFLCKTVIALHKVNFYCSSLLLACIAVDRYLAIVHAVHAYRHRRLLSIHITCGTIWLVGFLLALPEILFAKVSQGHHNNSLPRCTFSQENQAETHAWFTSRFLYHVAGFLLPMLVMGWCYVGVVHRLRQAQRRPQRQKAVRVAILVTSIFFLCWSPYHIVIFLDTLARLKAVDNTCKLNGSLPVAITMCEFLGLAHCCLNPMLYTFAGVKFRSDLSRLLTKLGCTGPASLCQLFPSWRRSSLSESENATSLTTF

T3: human CXCR2 (human, UniProt P25025 1-360)
T3 construct: whole, on cells; Native on the granulocyte population of human whole blood
T3 sequence (looked up): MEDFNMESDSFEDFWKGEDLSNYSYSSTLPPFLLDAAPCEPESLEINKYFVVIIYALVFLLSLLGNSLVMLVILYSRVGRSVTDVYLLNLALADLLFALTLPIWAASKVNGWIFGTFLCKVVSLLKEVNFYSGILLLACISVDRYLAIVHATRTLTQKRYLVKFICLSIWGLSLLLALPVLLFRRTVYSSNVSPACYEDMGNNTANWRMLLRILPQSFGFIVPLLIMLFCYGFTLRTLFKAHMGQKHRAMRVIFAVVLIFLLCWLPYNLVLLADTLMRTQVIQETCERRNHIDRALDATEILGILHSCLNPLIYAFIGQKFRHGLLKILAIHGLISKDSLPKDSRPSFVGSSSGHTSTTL


Experiments:
[1] = target: T1, cynomolgus monkey (Macaca fascicularis) …; experiment: cell-based or functional assay
[2] = target: T2, human CXCR5; experiment: cell-based or functional assay
[3] = target: T2, human CXCR5; experiment: KinExA, IgG2 mAb equilibrated with HEK-293 cells expressing human CXCR5, n-curve analysis
Protocol: Kinetic Exclusion Assay (KinExA) was used to determine the concentration of the free antibody that remains in solution after equilibrium has been established between the fully human IgG2 (subtype HC2h, as described in WO2009010290) anti-CXCR5 40C01 antibody variants and human CXCR5 expressed on the cell surface of stably transfected HEK-293 cells, from which the equilibrium dissociation constant (Kd) was determined. This method provides a true measure of the affinity/avidity of the antibody to integral membrane proteins like GPCRs.
HEK-293 cells, stably expressing human CXCR5, an integral membrane protein with 7 trans membrane domains, were harvested using Accutase cell detachment solution, resuspended at 2×10⁶ cells/ml and serially diluted 1 in 2 in 15 falcon tubes using KinExA buffer (PBS containing 1 mg/ml BSA and 0.02% NaN₃). An appropriate constant concentration of purified mAb was made in KinExA buffer and an equal volume of the mAb was mixed with the serially diluted cells. […] The cells were then centrifuged and the free mAb present in the supernatant was measured by KinExA using PMMA beads (Sapidyne Instruments, cat#440198) coated with goat anti-human IgG (H+L) (Jackson ImmunoResearch, cat#109-005-003) and DyLight 649-conjugated anti-human secondary antibody (Jackson ImmunoResearch, Goat anti-human Fc, cat#109-495-098) used at 1 μg/ml in KinExA buffer. […]

[4] = target: T2, human CXCR5; experiment: cell-based or functional assay; remark: listed apart in the source
[5] = target: T2, human CXCR5; experiment: cell-based or functional assay; remark: listed apart in the source
[6] = target: T2, human CXCR5; experiment: flow cytometry, Alexa Fluor 647 labelled mAb on HEK-293 cells stably transfected with human CXCR5; 40C01-VH1-Vk3, Alexa Fluor 647 labelled, HEK-293 cells with human CXCR5
Protocol: (§1) Anti-CXCR5 40C01-VH1-Vk3 and VH2-Vk3 variants were labelled with Alexa Fluor 647 dye using monoclonal antibody labelling kit from Invitrogen (Cat #A20186). Binding of labelled mAbs to HEK-293 cells stably transfected with human CXCR5 was examined by a direct immunofluorescence assay. A total of 1×10⁵ stable HEK-293 cells over-expressing human CXCR5 were incubated with 1 in 3 serially diluted Alexa Fluor 647 mAbs ranging from 60 μg/ml to 0.33 ng/ml in FACS buffer (PBS containing 1% BSA and 0.1% NaN₃) for 1 h on ice. Cells were washed twice with FACS buffer and analyzed on FACSCalbur flow cytometer (BD Biosciences).

[7] = target: T3, human CXCR2; experiment: flow cytometry, Alexa-Fluor 647 labelled mAb in human whole blood
Protocol: (§2) 40C01-VH1-Vk3 and VH2-Vk3 variants were labelled with Alexa Fluor 647 dye using monoclonal antibody labelling kit from Invitrogen (Cat #A20186). Blood was collected in sodium-heparinised tubes and rested for 2 h at RT. Sodium azide (NaN₃) was then added to whole blood to a final concentration of 0.01%. Serial 1 in 3 dilutions of Alexa-Fluor 647 labelled-mAbs ranging from 60 μg/ml to 3 ng/ml were added to blood samples and incubated for 30 min at RT. Phycoerythrin (PE) labelled anti-CD19 (BD Pharmingen, cat#555413) and anti-human CXCR2 (R&D Systems, cat #FAB331P) mAbs and their respective isotype controls were used for gating B cells and monitoring CXCR2 expression on granulocytes, respectively. Labelled red blood cells were then lysed using the human erythrocyte lysing kit from R&D Systems (Cat # WL1000) and the blood cells resuspended in FACS buffer (PBS-1% BSA, 0.1% NaN₃) and analysed by flow cytometry on FACS Calibur 3 (BD Biosciences). The EC₅₀ and ECB, values were calculated by plotting the FL4 fluorescence (emission of Alexa Fluor 647 dye) as a function of the antibody concentration. […] No binding of the two 40C01 variants was detected on the granulocyte population which expresses CXCR2 (neutrophils).

[8] = target: T2, human CXCR5; experiment: flow cytometry, Alexa Fluor 647 labelled mAb on CD19-gated human B cells in whole blood
Protocol: as §2

[9] = target: T2, human CXCR5; experiment: flow cytometry, Alexa Fluor 647 labelled mAb on HEK-293 cells stably transfected with human CXCR5; 40C01-VH2-Vk3, Alexa Fluor 647 labelled, HEK-293 cells with human CXCR5
Protocol: as §1

IC50, inhibition of ERK phosphorylation in whole blood (B cells, CXCL13-stimulated) [1]	IC50, inhibition of ERK phosphorylation in whole blood (B cells, CXCL13-stimulated) [2]	Kd [3]	efficacy of inhibition of CXCL13-stimulated L1.2-CXCR5 chemotaxis [4]	IC50, inhibition of CXCL13-induced L1.2-CXCR5 chemotaxis [5]	EC50 [6]	EC50 [8]	EC50 [9]	Binder	binding result [7]
0.195 nM	0.736 nM	0.0154 nM	100%	1.15 nM				anti-CXCR5 40C01-VH1-Vk3-IgG2_DI-NQ-HC2h (antibody, Whole antibody, modified human IgG2 (subtype HC2h, WO2009010290), kappa light chain; also called 40C01-VH1-Vk3 as IgG2; VH1-Vk3 (isotype 2)) heavy: EVQLLESGGGLVQPGGSLRLSCAASGFTFSRYVMVWVRQAPGKGLEWVSGISPSGGVTRYAASVKGRFTISRDNSKNTLYLQMNSLRAEDTAVYYCARIRKEMTTISYFFDYWGQGTLVTVSSASTKGPSVFPLAPCSRSTSESTAALGCLVKDYFPEPVTVSWNSGALTSGVHTFPAVLQSSGLYSLSSVVTVPSSNFGTQTYTCNVDHKPSNTKVDKTVEPKSSDKTHTCPPCPAPPVAGPSVFLFPPKPKDTLMISRTPEVTCVVVDVSHEDPEVQFNWYVDGVEVHNAKTKPREEQAQSTFRVVSVLTVVHQDWLNGKEYKCKVSNKGLPAPIEKTISKTKGQPREPQVYTLPPSREEMTKNQVSLTCLVKGFYPSDIAVEWESNGQPENNYKTTPPMLDSDGSFFLYSKLTVDKSRWQQGNVFSCSVMHEALHNHYTQKSLSLSPG light: DIQMTQSPSSLSASVGDRVTITCRASQGVDAYVAWYQQKPGKVPKLLIYSTSTLASGVPSRFSGSGSGTDFTLTISSLQPEDVATYYCQSHNAAVVTFGQGTRLEIKRTVAAPSVFIFPPSDEQLKSGTASVVCLLNNFYPREAKVQWKVDNALQSGNSQESVTEQDSKDSTYSLSSTLTLSKADYEKHKVYACEVTHQGLSSPVTKSFNRGEC	
1.57 nM	0.88 nM	0.047 nM	100%	0.108 nM				anti-CXCR5 40C01-VH2-Vk3 as IgG2 (antibody, also called VH2-Vk3 (isotype 2)) heavy: EVQLLESGGGLVQPGGSLRLSCAASGFTFSRSVMVWVRQAPGKGLEWVSGISPSGGVTRYAASVKGRFTISRDNSKNTLYLQMNSLRAEDTAVYYCARIRKEKTTISYFFDYWGQGTLVTVSSASTKGPSVFPLAPCSRSTSESTAALGCLVKDYFPEPVTVSWNSGALTSGVHTFPAVLQSSGLYSLSSVVTVPSSNFGTQTYTCNVDHKPSNTKVDKTVEPKSSDKTHTCPPCPAPPVAGPSVFLFPPKPKDTLMISRTPEVTCVVVDVSHEDPEVQFNWYVDGVEVHNAKTKPREEQAQSTFRVVSVLTVVHQDWLNGKEYKCKVSNKGLPAPIEKTISKTKGQPREPQVYTLPPSREEMTKNQVSLTCLVKGFYPSDIAVEWESNGQPENNYKTTPPMLDSDGSFFLYSKLTVDKSRWQQGNVFSCSVMHEALHNHYTQKSLSLSPG light: DIQMTQSPSSLSASVGDRVTITCRASQGVDAYVAWYQQKPGKVPKLLIYSTSTLASGVPSRFSGSGSGTDFTLTISSLQPEDVATYYCQSHNAAVVTFGQGTRLEIKRTVAAPSVFIFPPSDEQLKSGTASVVCLLNNFYPREAKVQWKVDNALQSGNSQESVTEQDSKDSTYSLSSTLTLSKADYEKHKVYACEVTHQGLSSPVTKSFNRGEC	
					2.26 nM	1.92 nM		anti-CXCR5 40C01-VH1-Vk3 variant (isotype not stated in the example) (antibody, V domains shown, also called Alexa-Fluor 647 labelled 40C01-VH1-Vk3) VH: EVQLLESGGGLVQPGGSLRLSCAASGFTFSRYVMVWVRQAPGKGLEWVSGISPSGGVTRYAASVKGRFTISRDNSKNTLYLQMNSLRAEDTAVYYCARIRKEMTTISYFFDYWGQGTLVTVSS VL: DIQMTQSPSSLSASVGDRVTITCRASQGVDAYVAWYQQKPGKVPKLLIYSTSTLASGVPSRFSGSGSGTDFTLTISSLQPEDVATYYCQSHNAAVVTFGQGTRLEIK	no binding (tested: 60 µg/ml to 3 ng/ml tested)
						7.22 nM	4.6 nM	anti-CXCR5 40C01-VH2-Vk3 variant (isotype not stated in the example) (antibody, V domains shown, also called Alexa-Fluor 647 labelled 40C01-VH2-Vk3) VH: EVQLLESGGGLVQPGGSLRLSCAASGFTFSRSVMVWVRQAPGKGLEWVSGISPSGGVTRYAASVKGRFTISRDNSKNTLYLQMNSLRAEDTAVYYCARIRKEKTTISYFFDYWGQGTLVTVSS VL: DIQMTQSPSSLSASVGDRVTITCRASQGVDAYVAWYQQKPGKVPKLLIYSTSTLASGVPSRFSGSGSGTDFTLTISSLQPEDVATYYCQSHNAAVVTFGQGTRLEIK	no binding (tested: 60 µg/ml to 3 ng/ml tested)
